Test: soluble on expression in E. coli; label from the status in PepcDB or PDB records
For “MGSDKIHHHHHHMRIDIDSFNVLQVLVEEGSFAKASERLHKAQSAVSYQVKKLEQHLGVTLFNRDKYRAELTPEGKVILIEGQRLLEQLANIEHLASRFSQGWEPKLELVIDGSLPMEPIMTALKRMSEHNVPTKIQLNMEFLGGVQHRFERDKADLMLVKDYRSGPYYDAKPLPSITSVLVVANSHPLALSKAVSLSQLQQHVELTIEDSSPSRLGRDELQFGGDKVFYLSGFIMKKNALLKGLGFGWMPDFLIGEELAAGELVMVDFMGGSRFNYTPQLVSTLARPLGRAGQLFTELILQEFDLFHQDLADGSSGSGLG”, the “soluble on expression in E. coli” value was “not soluble”.
For “MPYTFENSEALLKNLKDAAPYISAAERFASFKGFVYDKRINIACTSEKLARAGFYSTASPEFPASAKCPFCMLEINFEQCDDPWEKHKSGSPHCEFVMIGEIEESELSFRIISNLAIRHATVRLYEELLGIVATLENGDIANENPITRADATRKLISFRSSSKLLTFDHRLATFQNFIFDKKRNVKCTSKKLAKAGWFSIANKKDKTSAKCPFCLVELDFDESDDPWEEHQKFSASCDFIKLGKLDEKKWTENEALMLGARITIMQKYEKGSWLIDELEKENRIDEIIKIRKIMIKPNHVLKRRRCSI”, the “soluble on expression in E. coli” value was “not soluble”.
For “MTDTNTLLVTSLEEGIGKTAITLALATRAHDAGYDVGYMKPKGTRLRSAVGKTRDEDPMLARELLDLETDLHDMEPIVYSPTFIQEAIRGREDPDDLRERLQEGIETCSDGTDMLLVEGSSDLATGSIVDLTDIDIAELLDARVLLVTGYDTPSDTDEILSAAEAIGDRLDGVLFNGVTDATVDELADDVVPFLEGEGIPVHGILPRDRSLAGVTVADLARNLGADILTGDANTDVHVERFSVGAMSGSSALERFRRTRDAVVVTGGDRSEVQTAALEASGINALLLTGGFQPASAVIGQAAEKNVPVLSVQSDTRTTIDRVEEVLRTGQTRNEATVDRMRTLLDDGVDVESLLSVDLLEHHHHHH”, the “soluble on expression in E. coli” value was “soluble”.
With “MFLSVFELFKIGIGPSSSHTMGPMTAANMFLREIMRCNFLRSSHTGISHIRVYLYGSLAFTGVGHATDRAVILGLLGEEAATVNPDNIDILLEKVTREKKVQPDGHPAYWFNLQSDLIFKRKEVLPGHTNGLAFEGLDADGNVLLRQTYYSIGGGFVVTEDELNCINGNTQSKTSKVPYPFDSARKMLSMAEKSGLSIAEMKRLNEETKMERSALNTGLDNIFSAITKCIDRGLSQEGELPGGLRVSRRAKKLYETLLENQKKNRNYPLLANDWLSVYAIAVNEENAAGGRVVTAPTNGAAGVVPAVLRYYLQFNDNSDQEGIHNFLLTAAAIGGVIKHNASISGAEVGCQGEVGTASSMAAAGLTAVLGGTPAQIENAAEIALEHHLGMTCDPVAGLVQIPCIERNAMGAVKAVTASSLALHGNGKHFVSLDACIETMRQTGHDMSERYKETSKAGLAVNAISC” the “soluble on expression in E. coli” value was “not soluble”.
In the case of “MGSDKIHHHHHHMYYPYWQLGGTPWYQPPVQQQAPPYFQLPPLYTGPYSSPYQTSLVPYLTRPLRTPETPQDRTRTIMRDLMTAIDGEHRAIQCYQQMAQHAPTKKEQQQIEEIITDEQRHLRTFSALYQQITEKQHEPTTDQKISHNYEKALAFAVEEEQKTVDFYLEVADHAPNLQIREAFQRAAKDEQNHAVWFLYFLTKRLTSKL”, the “soluble on expression in E. coli” value was “not soluble”.
For “MGSDKIHHHHHHMSFYIYGILTLPAPQNLNLEGLDRQPVQIKILDDFAVIYSEAQQERYLASRRNLLSHEKVLEEIMQAGDRYLLPVQFGLLVSSWETVSQQLIRPHQEELTQLLAKLSGCREVSVKVFWDTEAEIQGLLAEHPNLKTERDKLVGQPLSMERVIQIGQVIEQGMSDRKQGIIDVFKGTLNSIAIEVVENTPQVDTMIYNSAYLIPWEAESQFSEHVESLDRQFENRLRIRYNNFTAPYNFARLRLTTSN”, the “soluble on expression in E. coli” value was “not soluble”.
For “MAGQLPRRIIKETQRLLADPVPGISANPDESNARYFHVMIAGPDDSPFAGGVFKLELFLPEEYPMAAPKVRFMTKIYHPNIDKLGRICLDILKDKWSPALQIRTVLLSIQALLSAPNPEDPLATDVAEQWKTNEAEAIKTAKQWTMNYAQA”, the “soluble on expression in E. coli” value was “not soluble”.
With “MGHHHHHHSHIEETTMTTQTPAPIQAPSAILPLPGQSVERLCVDPRHRQGPVNLLSDPEQGVEVTGQYEREKAGFSWIEVTFKNPLVWVHASPEHVVVTRNRRSSAYKWKETLFSVMPGLKMTMDKTGLLLLSDPDKVTIGLLFWDGRGEGLRLLLRDTDRFSSHVGGTLGQFYQEVLWGSPAASD” the “soluble on expression in E. coli” value was “not soluble”.
In the case of “QNPSIYCAGHGIYWVAYDMGTALSTGPVKVEAETSGDIDGRIYGIVLAAVYEDKEGQDTRYWVEEGNINLHDKGRSEEASSTHDEAYADFSGKVDVDRYKTANLAAVYLCGSPGLGDSLYFNDEQLSDGENSNDIANSKSYFDLKFFDVLDFLAEDDNELRFQRDDEDYLHPVFAALSLGTEEEGSSDLIVSGVTLPVLYAGQENIIKANIKNIGRDSAYGFQAALYADNEIVSTASVSSLSSGKSKTIDFNWKPGRSGEHVLKVSVDYTNRKKELCEINNWNIPFLANIIDLTPPEIEIDSPLDGSSVSSGYLKVSGTVEDTSRNTTVDVNGQKALLADKRWSADIPVAPGPNKIVVSAVDGTNNTGKEFILVTGISSGSGNNESFVSGGEREHVNRKVNAEPVSSTIPVYRSDI”, the “soluble on expression in E. coli” value was “not soluble”.
With “MLMEPQFLRLVSHGANVLDPLSRIEPAAVGMMAGALQKGLAETFTPEAMQDPPRVGLAGFFKQLSDPEVQKALGVLFLFLKALGKAFGHMNEERKTLEAMMAKMMPKK” the “soluble on expression in E. coli” value was “soluble”.
With “MSRYCSQCGKSRKACICQWIVPLASGVELIILQHTSEAHRPLGTARILNLSLKNCTCLIGEDFSDDAQLNALLTDEAYQHFILYPSEQSQCLSDIACTESERTRKTRLILLDGTWKKAYKMWQLSTNLHTLTTVKLPEDLQGHYTIRKAPSDNSLSTVEAGFYALSLLEPDNDFSPLLNAFDRMIEFQIAQMPPGVFEKNYLNKLEHHHHHH” the “soluble on expression in E. coli” value was “not soluble”.
With “MGSDKIHHHHHHMTPTAFNTGRVQVNKTIAELRSLGKDARERVPFSQLGQYQPLDRDSNQLMDRIRRLLIPELLPERTRRMAASPFAFFRGTAELMEADLRQQPNSTIETFVCGDAHIGNFGFYASPERRLLFDLNDFDEAGINPWEWDLKRLLVSVLLAAQANGIKEKKIKQFLPTVAASYRKSMKQMFTQTTLARFYPLNDVEKLIQASALTDADSQLLMTIINRASKRDSEQVVRKFTTLDSRGNLCFRENAPKTTHVTDDVTTHIATYFAAYRQTVRPDVNLLLSQYHLTDVVRHSVGVGSFGSRCYLVLLTSIDGSHLVLQIKEALPTRQQGSQTLAQLTVAQEQTEGQRIVDCQKILQSASDSFLGYFAGNQHSFYVRQFRDMKESIDLTQLDWGQLQTYANTCAWTLAIAHCQSPTAAMIRGYIGGGKQFDEQLAAFASAYAQQVQTDYESFVAYRLPTKQP” the “soluble on expression in E. coli” value was “not soluble”.
In the case of “MSLVKTRILIISDTHGSKPKPKSDNSPSTEDELNQEDVTKVITGWRDPLPEADVVIHCGDLTKRTTIPEFEQTFSVLRSIKAPLKLAIAGNHDTALDEEHWVNKYGGSKETIDKVKKIVREAETDGVKYLPEGVHEFTLANGALLKVYASPWTPAYGGWAFQYKNGHDFNIPPGMDVAVTHGPPRGILDFAGRAGTHAGCPQLLAAVARAKPKIHCFGHIHEAWGMHHVTWDGDEIDLARSQYRGLKGLRPNRVTQGKETARMTREKLIEMSKQRAVRLDLTQGINRSIAGKQTLFVNAAIMSIRYRPVQLPWIIDVDLKAREGHHHHHH”, the “soluble on expression in E. coli” value was “soluble”.
In the case of “MLNEFDQYLHERYLSGKARKDRWYWNNSIQRGRSTAVRENWQWKPAVAYCRYADDFVLIVKGTKAQAEAIREECRGVLEGSLKLRLNMDKTKITHVNDGFIFLGHRIIRKRSRYGEMRVVSTIPQEKARNFAASLTALLSGNYSESKVDMAEQLNRKLKGWAMFYQFVDFKAKVFSYIDRVVFWKLAHWLARKYRTGIASLMRWWCKSPKPGQSKTWVLFGKTNHGKLSGEILYRLVGQGKKLFRWRLPEGNPYLRTETRNTYTSRFTEVAMAFASI”, the “soluble on expression in E. coli” value was “not soluble”.
In the case of “MDKVKAARSLIQEALAQSQNPCFTCSFQAEDVVVLHLLLKERPEIPVLFLDTGYHFPEVYAYRDELQKRLGFRLVNLTPALSREEQERLYGKLYETDPGRCCALRKVEPLFAALEAHDTWFTGLRREQSPTRRNLEPQEEARLPSGHRLKKVNPLYDWTLKEVFAYLAVEDLPYLPLYDQGYLSIGCAPCTAKPLDPSDPRSGRWAGKGKLECGIHLHGKEG”, the “soluble on expression in E. coli” value was “soluble”.
In the case of “MGSDKIHHHHHHMRFGLDLGTTRTIAAAVDRGNYPIVTVEDSLGDTHDFIPSVVALKADRIVAGWDAIEVGQDHPSFVRSFKRLLSEPNVTEATPVYLGDHVHPLGAVLEAFAENVVTALRAFQTQLGDTSPIEVVIGVPANSHSAQRLLTMSAFSATGITVVGLVNEPSAAAFEYTHRHARTLNSKRQAIVVYDLGGGTFDSSLIRIDGTHHEVVSSIGISRLGGDDFDEILLQCALKAAGRQHDAFGKRAKNTLLDESRNAKEALVPQSRRLVLEIGDDDITVPVNKFYEAATPLVEKSLSIMEPLIGVDDLKDSDIAGIYLVGGGSSLPLVSRLLRERFGRRVHRSPFPSGSTAVGLAIAADPSSGFHLRDRVARGIGVFREHDSGRAVSFDPLIAPDTDSATVAKRCYKAVHNIGWFRFVEYSTVSEDGSPGDISLLSEIKIPFDSSITDVDATEISRFDGPEVEETITVNDNGVASISIKILGGVTVEHTI”, the “soluble on expression in E. coli” value was “not soluble”.
For “MGSDKIHHHHHHDDDNTANPAEEVVKASKKHDTAILLCTFGSTFKESIKTYDATLADFQNAFPDADIYLSFTSRTCVNRVEAETGIARYQPDLWLQALGNAGYKKVAVQSLHIIPGEEYLSLMNTDVKKKFMIESFPSVQVVKSPCLVYNEEDVEAVAKVLYSHYSDKLADNKNILLLMGHGNPDKNYNANTKYTETEEAMQALAANKNVFVGTVDYGDMLFWPEEGEPNEECVYSKLTKYCEDHNLKPEEITISLAPFMSIAGDHAHNDLWGIEEGDDFSAAAPNADACWRLKLLKMGFKIDTKESHNGSLENCKIIGLGDYDAVRQIWVNHLKALYNDAEAWETGEDYQ”, the “soluble on expression in E. coli” value was “not soluble”.
For “MGSDKIHHHHHHMKRILVSLYEKEKYLDILRELHEKGWEIWASSGTAKFLKSNGIEANDVSTITGFENLLGGLVKTLHPEIFAGILGPEPRWDVVFVDLYPPPDIDIGGVALLRAAAKNWKKVKPAFDMETLKLAIEIDDEETRKYLAGMTFAFTSVYDSIRANQFVEGISLAFKREDLQLRYGENPHEKAFVYGKPAFEILHEGKTISFNNILDAENAWFMAKNLPRMGAVVVKHQSPCGAAIGEDKVEIVKKAIEADDESSFGGILAVNFEMDEEVAKSLKKYLEVIVAPSFTQEAIEVLSKKKVRLLKPGDYASWAGKMAFGSLVLSERKYPEGNFELVVGEPLSEKELEDLEFAYRVVEGAKSNAVLIAKDGVTVGIGSGQPSRKRAAWIATVMAGEKAKGAVAASDAFFPFPDSLEILAQAGVKAVVAPLGSIRDEEVIEKARELGITFYKAPSRVFRH”, the “soluble on expression in E. coli” value was “soluble”.
For “MGSDKIHHHHHHMRNYCRWCENDPLLIAYHDKEWGQREGNDQRLFEAMCLELFQSGLSWKTVLQKRDSIRKAFHHFELEKVATMNEQDVERLLKDKGIIRHRKKIEATIQNSRNVVRLQREFGSFREWIESLPNDVEAKAAMISEMFTYMGPITAKSFLEATGFIPVEHDKQCHLFEGKSLQIKPIGTADRGEVQQFFHQHWGSPEMVLSTGVFHCERLPGFLYRNKLGEIIGLITYVTHGKRSIEIISLDSVEEGKGIGTSLLQAVEAEAIEQQVRQIEVITTNDNLHALGFYQKRGFQLKELVVNGVEKARQLKPSIPRKSADGIPIRDELKLVKTMR”, the “soluble on expression in E. coli” value was “not soluble”.
For “MSLIEKLEEIFKKGSVTYYNSSYFFPKKIREDVTKLYAFVRVFDDLVDSVPQKIEEYYNLRKLYQLEKSGYNTGNIVLQNFVELARRKGFEDSWIDAFLDAMESDIYKKVYYSIEELLKYMYGSAEVVGLFMMKILDLHNDSMYYARMLGRAMQFLNFIRDVQEDLYLGRQYLPVEDMEKFGIDKMECNEGFIEFIRYEISRYFEFEREAEKGFKFIPARYLVPIKTASEMYKWSALRIKKSPCIVLSKKVKPRRTKIVITVIKNFAGVYLWRSLNPIEGHHHHHH”, the “soluble on expression in E. coli” value was “soluble”.

From the DeepSol protein solubility set
